Source: article PMC6684243

Molecular target: N-terminal domain of the HIV-1 capsid protein (HIV-1) (UniProt P12493)
Experiment: ITC

calcium-saturated human calmodulin ((Ca^2+)4-CaM) (from UniProt P0DP23 1-149) (natural protein)
Kd: 3.73 µM
stoichiometry N: 1
